# ± gives the standard deviation of the averaged measurements.
# System: Saccharomyces cerevisiae
# Assay: protein stability index of tFT-peptide fusion (C-terminal peptide) (PSI (0-1 scale)); higher = more stable (slower turnover)
# Details: genetic background: wild type; temperature: 30 C
# 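Further: PSI is a weighted mean of sequencing reads over stability bins, variants kept only with over 10 reads, mCherry proximal and sfGFP distal, peptide attached via GGGS linker.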
row,Sequence,protein stability index
1,DLSSFGRLGCQG,0.871 ± 0.037
2,PLCLPALPPPLP,0.676 ± 0.097
3,CVLWLISLLPDR,0.563 ± 0.068
4,YFALLMLTPPPP,0.636 ± 0.022
5,GQRKQKIKKKRK,0.647 ± 0.16
6,PSLFHHWSVLSP,0.785 ± 0.1
7,VGGEGKVVRGQE,0.6518 ± 0.00034
8,RCPPPQPPVRKV,0.642 ± 0.1
9,LVKVGCVGLIKC,0.545 ± 0.0066
10,RRPLLSTPAPCS,0.755 ± 0.025
11,FTYGPVQGAARG,0.717 ± 0.015
12,PTPLPPRSPPPQ,0.754 ± 0.045
13,APPVPLWVNPRT,0.7 ± 0.025
14,AVLTLRAPPSAL,0.708 ± 0.025
15,VACIIIDFTRWY,0.536 ± 0.019
16,GGRALVGGRRHG,0.756 ± 0.14
17,TSPPPPSPPAHH,0.625 ± 0.024
18,PLKTDSVPEFTA,0.5811 ± 0.0033
19,PFLIPPRPFSFP,0.709 ± 0.1
20,SLDLSQPMPWYH,0.711 ± 0.051
21,NSTLSSNATRVK,0.727 ± 0.015
22,GPLVGGDGRWVG,0.706 ± 0.011
23,PPPRARPHAPPL,0.653 ± 0.017
24,DWFGGSVRVDEN,0.693 ± 0.055
25,LLIFFFSSSCPL,0.5359 ± 0.0025
26,SSLPALRSPCHP,0.738 ± 0.06

row,Sequence,protein stability index
1,KKKKNNKETKNK,0.705 ± 0.015
2,TEVWERGKNVGE,0.635 ± 0.03
3,LVKRINKVNNRR,0.632 ± 0.1
4,EVVGGSESRELG,0.6569 ± 0.0027
5,VGSCGGGKVVVE,0.6555 ± 0.00076
6,KKKRIERKEKGE,0.676 ± 0.059
7,PRSSVLPPCPSL,0.707 ± 0.025
8,LYHPRLAPLPRT,0.627 ± 0.042
9,PPPAPPPPPTFL,0.688 ± 0.019
10,SFAKHRNASMGR,0.691 ± 0.04
11,FVGSFYWSGFYV,0.70213 ± 0.00049
12,TEEVRVRVQTEL,0.663 ± 0.035
13,LWGWAGLRCGGF,0.685 ± 0.032
14,NPLRVRNNNDGL,0.745 ± 0.047
15,GGGGATSGRLSR,0.705 ± 0.023
16,FPPPLCLHRPIP,0.786 ± 0.1
17,TQPDLAPPLPRS,0.65 ± 0.017
18,TDWCPQSCVCSL,0.647 ± 0.051
19,ICGGTNFPLGSV,0.741 ± 0.032
20,SFSLAPSPPLLP,0.721 ± 0.042
21,SPPTCPNQLGPP,0.7 ± 0.074
22,PNPIHHPTSTTA,0.672 ± 0.053
23,RCSCNKNGFSSN,0.607 ± 0.2
24,DNKEIEQTIRNK,0.6304 ± 0.0041
25,GEKSSDDYEVKD,0.6554 ± 0.002
26,PPSSPPFLPSRP,0.677 ± 0.031

row,Sequence,protein stability index
1,CGLRVVGVVGAP,0.712 ± 0.062
2,YYRARRFRQSRR,0.709 ± 0.077
3,ETALKVGSVGGV,0.71037 ± 6.9e-05
4,TSAPRGNGKPEQ,0.678 ± 0.016
5,EQQTPIKKNKQR,0.826 ± 0.036
6,TKRLLPPRTVAI,0.696 ± 0.066
7,AVKRNDALGIQF,0.718 ± 0.046
8,ISFVFSDSLFPI,0.785 ± 0.012
9,GGGGAGGGGGGG,0.6739 ± 0.0021
10,DCWAGGGLCGWG,0.719 ± 0.05
11,LFSHLLFPWLSR,0.7545 ± 0.0048
12,SLLPQSAGRRPH,0.666 ± 0.063
13,PPRPPPSSPHLV,0.698 ± 0.023
14,PSPLPPPLPPPV,0.675 ± 0.043
15,GTLGYALPTPYE,0.6736 ± 0.0059
16,SHPLTLPSLLPP,0.717 ± 0.045
17,RLRRSSSNPHSP,0.656 ± 0.043
18,APAPSLPTSGEL,0.701 ± 0.092
19,VTSRSFYRVSPL,0.68 ± 0.14
20,LSPPVLLAPPQH,0.59 ± 0.0098
21,TNRNGQQRWEKG,0.64 ± 0.0078
22,GFINYDHKVIRI,0.77 ± 0.023
23,DSTWGLGLFSVP,0.64 ± 0.033
24,PPPPAPPVPLPL,0.693 ± 0.016
25,GGDVHGEGNVCG,0.698 ± 0.027
26,EVGWMPFYLVGL,0.67 ± 0.11

row,Sequence,protein stability index
1,KGTRKPSTKIIV,0.667 ± 0.074
2,LPGCPPADRPLV,0.688 ± 0.13
3,EGDGQGGGGQGG,0.695 ± 0.011
4,GGGGGGGGAWSG,0.723 ± 0.037
5,GYWGRGGGLGGV,0.7438 ± 0.001
6,PFAGLFFFFVPF,0.58 ± 0.033
7,PEAEPPPPPPPP,0.552 ± 0.028
8,SLSTAEAHGRRS,0.72 ± 0.082
9,TYKEHNKTRETG,0.686 ± 0.076
10,SRGGKMRPGGGG,0.711 ± 0.012
11,KYKKNNNKKQNQ,0.704 ± 0.097
12,VWASVRRIFRVG,0.554 ± 0.0058
13,STSSPSSSTLLP,0.719 ± 0.031
14,PPPPSPPPILPP,0.64 ± 0.01
15,PRLPYPSLFPCT,0.678 ± 0.056
16,DPYYGFRMRIPF,0.691 ± 0.026
17,KKNKNKEYCKVK,0.734 ± 0.082
18,VPAPLPRTSPPS,0.673 ± 0.053
19,SSASDVYQVINS,0.676 ± 0.009
20,GQEGQIPPGNVH,0.709 ± 0.011
21,IFMGSPYPRLPT,0.633 ± 0.018
22,CGGKTEKRKKYT,0.6062 ± 0.0034
23,VANGGVIVRGRC,0.668 ± 0.012
24,VASDGGYGYLRF,0.797 ± 0.077
25,VVGALRFSDLFK,0.73 ± 0.042
26,FPPPPRPPLSFP,0.711 ± 0.078

row,Sequence,protein stability index
1,LFPRCPPPPLTT,0.653 ± 0.053
2,RPPCFRPPPPPL,0.715 ± 0.072
3,GWGGIGDGGPVW,0.679 ± 0.019
4,DSPLSHPPSPAP,0.6235 ± 0.0019
5,PYPNAQRIEIKF,0.651 ± 0.026
6,RRGVAEGVDGEG,0.615 ± 0.0071
7,VRSFSFSALLAV,0.58 ± 0.024
8,DLGARWLFLLQT,0.622 ± 0.012
9,DRLGADCPLLSG,0.734 ± 0.028
10,LRARLTGRFIVG,0.669 ± 0.013
11,LNEGSDRTKNKK,0.709 ± 0.065
12,HTPTLPLHPPRY,0.642 ± 0.037
13,TVKSCGRTLFSW,0.6874 ± 0.0051
14,LSDSLERVGGAF,0.701 ± 0.048
15,AVGVRSSGRVSI,0.7246 ± 0.0034
16,MAVDSVIISAVF,0.592 ± 0.096
17,LTVLCWVLCYLL,0.527 ± 0.026
18,KPRLARLSLSLL,0.784 ± 0.14
19,GPAPAPPALSSC,0.745 ± 0.0089
20,GVCAVCRLGLVA,0.5574 ± 0.00072
21,ASTPLPTSPPPP,0.66 ± 0.036
22,LHHGMVDDCIKK,0.70112 ± 0.00044
23,PDRLPPPLLPPL,0.718 ± 0.028
24,RVGYVPNFFCVL,0.6254 ± 0.0038
25,WPVALAPTRLEI,0.608 ± 0.072
26,PASPPPRTISSP,0.704 ± 0.064

row,Sequence,protein stability index
1,SHVDRVVFWYLL,0.529 ± 0.033
2,SHVVDAPYRSEG,0.66601 ± 0.00013
3,VDFGTLISEDRM,0.736 ± 0.036
4,TIASGCTWSPGH,0.645 ± 0.013
5,VMNHYCRFPVST,0.598 ± 0.023
6,QKKKKLAYVGKR,0.659 ± 0.012
7,IKKRHQNGGKKE,0.65 ± 0.0085
8,VLFEARFSLRQS,0.6768 ± 0.0044
9,CRCTKVVVFGYP,0.667 ± 0.022
10,RGRFVVGAGRED,0.67 ± 0.077
11,GGVCVGLWGGRG,0.709 ± 0.043
12,GGRHARRGRRRR,0.75 ± 0.11
13,FLSWSLPCITFR,0.571 ± 0.051
14,GIISLTPRGCTR,0.92 ± 0.11
15,PLPHPPPPPPLP,0.768 ± 0.026
16,PKKTTIQRDKTN,0.607 ± 0.027
17,PLFYSLCFFCGL,0.667 ± 0.044
18,TSDPFGRPPETN,0.643 ± 0.1
19,KEEKLKNKITKY,0.679 ± 0.011
20,PFPAPPPPPPPP,0.678 ± 0.064
21,RCSLLVVPHSPP,0.717 ± 0.04
22,TSTTRRGPRSRF,0.8168 ± 0.0029
23,PHHAPRPPPFAG,0.646 ± 0.05
24,VHFSSSCDYLIV,0.653 ± 0.081
25,DYLVRGPPRASG,0.629 ± 0.021
26,QKKKKNKKQKTE,0.599 ± 0.021

row,Sequence,protein stability index
1,GLACWALLTCNR,0.726 ± 0.015
2,TVPLPPPPFLDS,0.772 ± 0.042
3,WGGLGGREPGGS,0.74 ± 0.078
4,SYPTRSKSAYSL,0.652 ± 0.059
5,FTCVVRRGDIQL,0.675 ± 0.056
6,RLLGSSPAVLLY,0.628 ± 0.062
7,YSRRRKILRKSY,0.615 ± 0.051
8,TNQITRHELTTY,0.599 ± 0.043
9,YFLCPPTSPHRH,0.736 ± 0.13
10,VEGCVKGGCGGG,0.662 ± 0.052
11,RILNADSREHSS,0.775 ± 0.12
12,YSRPAPSAPPHL,0.698 ± 0.016
13,VGAGAGGVGWVL,0.749 ± 0.056
14,SPAASPSRPPPI,0.648 ± 0.025
15,GGVLERARRRGG,0.708 ± 0.2
16,RGPRSSGRKGIR,0.676 ± 0.042
17,QRNPQNKDRVQD,0.663 ± 0.004
18,GVLWCGYGVGGG,0.762 ± 0.11
19,SVSCVSRTVAPS,0.684 ± 0.027
20,GRGGYGKESLYC,0.627 ± 0.031
21,QSGLAGIPIPKN,0.681 ± 0.078
22,PLPPLPSTHPTL,0.698 ± 0.035
23,RTQMLIIDKRNS,0.6437 ± 0.0028
24,DCVACFFFYSGG,0.599 ± 0.0099
25,GFRGGAYRWCIS,0.701 ± 0.03
26,SPSLPSLNRCSL,0.769 ± 0.016

row,Sequence,protein stability index
1,GGVGRSWQEVGG,0.72 ± 0.025
2,RNKEPRSSRQNS,0.578 ± 0.009
3,SRWTLRTSMDLG,0.616 ± 0.013
4,LYKKRSCCLSPL,0.714 ± 0.053
5,WVHTLHARIGCQ,0.625 ± 0.046
6,IRHSTRTRPSSV,0.745 ± 0.03
7,TRSADGFLGVMV,0.739 ± 0.0092
8,GGLLGAGGGCGV,0.681 ± 0.046
9,DLRFLQFGFIPW,0.752 ± 0.043
10,KKRGKNSKAQRE,0.694 ± 0.013
11,GVCGGVGGWGVA,0.698 ± 0.019
12,GTYPGAGWRYEW,0.694 ± 0.037
13,GVVALFLYLLVL,0.494 ± 0.02
14,RLAPASAFPHSP,0.687 ± 0.052
15,QIQRSGGGGHCG,0.739 ± 0.0028
16,PPIPPSAPLCPP,0.688 ± 0.014
17,FPPPSPPPLSPC,0.689 ± 0.024
18,LPPRPGFLSSLP,0.64 ± 0.082
19,SALLLPRARPPD,0.634 ± 0.055
20,IHSPCAMRPLIS,0.672 ± 0.0087
